US20140348865A1, “[…] ON AN HIV-1 V1V2 SITE-OF-VULNERABILITY” (The United States of America, as represented by the …, priority 2011, published 2014)

Columns and labels:
epitope-scaffold 2ZJR_B = assay: ELISA, antibody dilution series on the scaffold
[1] = target: 1FD6 ZM109 scaffold N160Q; assay: ELISA
[2] = target: 1FD6 ZM109 scaffold N173D; assay: ELISA
[3] = target: 1FD6 ZM109 scaffold N138D; assay: ELISA
[4] = target: 1FD6 ZM109 scaffold N130D; assay: ELISA
[5] = target: 1FD6 ZM109 scaffold N189D; assay: ELISA
1FD6-ZM109 V1V2 scaffold = assay: ELISA
[6] = target: 1FD6 ZM109 scaffold N192D; assay: ELISA
monomeric gp120 = assay: ELISA or SPR against neutralization
[7] = target: Env of HIV-1 strain JRFL (pseudovirus) (HIV-1)
[8] = target: Env of HIV-1 strain BG 1168 (pseudovirus) (HIV-1)
[9] = target: Env of HIV-1 strain RHPA (pseudovirus) (HIV-1)
[10] = target: Env of HIV-1 strain QH0515 (pseudovirus) (HIV-1)
[11] = target: Env of HIV-1 strain CNE4 (pseudovirus) (HIV-1)
[12] = target: Env of HIV-1 strain 7165.18 (pseudovirus) (HIV-1)
[13] = target: Env of HIV-1 strain T251-18 (pseudovirus) (HIV-1)
[14] = target: 1FD6 CAP45 scaffold N143D/N147D/N192D; assay: ELISA on His-captured supernatant

## monoclonal antibody PG9
epitope-scaffold 2ZJR_B
  EC50 (read off the curve): 0.1 µg/mL
[1]
  EC50: > 50 µg/mL
[2]
  EC50: 7 µg/mL
[3]
  EC50: 0.2 µg/mL
[4]
  EC50: 0.4 µg/mL
[5]
  EC50: 0.1 µg/mL
1FD6-ZM109 V1V2 scaffold
  EC50: 0.1 µg/mL
[6]
  EC50: 0.1 µg/mL
WITO.33 (HIV-1)
  neutralization IC80: 0.03 µg/mL
ADA.DG (HIV-1)
  neutralization IC80: > 50 µg/mL
CH038.12 (HIV-1)
  neutralization IC80: > 50 µg/mL
QH0692.42 (HIV-1)
  neutralization IC80: > 50 µg/mL
TRJO.58 (HIV-1)
  neutralization IC80: 3.22 µg/mL
T253-11 (HIV-1)
  neutralization IC80: 1.72 µg/mL
TRO.11 (HIV-1)
  neutralization IC80: > 50 µg/mL
CNE10 (HIV-1)
  neutralization IC80: 1.61 µg/mL
C3347.c11 (HIV-1)
  neutralization IC80: 0.168 µg/mL
RW020.2 (HIV-1)
  neutralization IC80: 0.622 µg/mL
0330.v4.c3 (HIV-1)
  neutralization IC80: 0.083 µg/mL
BB539.2B13 (HIV-1)
  neutralization IC80: 0.422 µg/mL
CNE5 (HIV-1)
  neutralization IC80: < 0.023 µg/mL
CNE59 (HIV-1)
  neutralization IC80: 0.465 µg/mL
Monomeric gp120
  fold weaker affinity for monomeric gp120 than for the viral spike: > 10 fold
[7]
  neutralization IC50: > 50 µg/mL
[8]
  neutralization IC50: > 50 µg/mL
SF162.LS
  neutralization IC50: > 50 µg/mL
CNE14
  neutralization IC50: > 50 µg/mL
TRJO.58
  neutralization IC50: 0.246 µg/mL
[9]
  neutralization IC50: > 50 µg/mL
YU2.DG
  neutralization IC50: 3.69 µg/mL
T257-31
  neutralization IC50: 0.02 µg/mL
T266-60
  neutralization IC50: 24 µg/mL
[10]
  neutralization IC50: > 50 µg/mL
BR07.DG
  neutralization IC50: > 50 µg/mL
CAAN.A2
  neutralization IC50: 13 µg/mL
QH0692.42 (pseudovirus)
  neutralization IC50: > 50 µg/mL
CNE12
  neutralization IC50: > 50 µg/mL
BaL.26
  neutralization IC50: 0.034 µg/mL
[11]
  neutralization IC50: > 50 µg/mL
HO86.8
  neutralization IC50: 0.014 µg/mL
T278-50
  neutralization IC50: 0.913 µg/mL
Bal.01
  neutralization IC50: 0.052 µg/mL
T33-7
  neutralization IC50: < 0.023 µg/mL
JR-CSF
  neutralization IC50: 0.003 µg/mL
89.6.DG
  neutralization IC50: > 50 µg/mL
AC10.29
  neutralization IC50: 0.078 µg/mL
MN.3
  neutralization IC50: > 50 µg/mL
[12]
  neutralization IC50: > 50 µg/mL
SC422.8
  neutralization IC50: 0.535 µg/mL
T253-11
  neutralization IC50: 0.127 µg/mL
SS1196.01
  neutralization IC50: 0.293 µg/mL
T280-5
  neutralization IC50: 0.379 µg/mL
HT593.1
  neutralization IC50: 0.271 µg/mL
ADA.DG
  neutralization IC50: 0.342 µg/mL
THRO.18
  neutralization IC50: 15 µg/mL
TRO.11 (pseudovirus)
  neutralization IC50: 41.5 µg/mL
T250-4
  neutralization IC50: < 0.0006 µg/mL
DJ263.8
  neutralization IC50: 0.1 µg/mL
WITO.33
  neutralization IC50: < 0.023 µg/mL
CNE10
  neutralization IC50: 0.243 µg/mL
HXB2.DG
  neutralization IC50: 0.553 µg/mL
BX08_16
  neutralization IC50: 0.024 µg/mL
PVO.04
  neutralization IC50: 6.24 µg/mL
BL01.DG
  neutralization IC50: > 50 µg/mL
REJO.67
  neutralization IC50: 0.005 µg/mL
[13]
  neutralization IC50: > 50 µg/mL
T255-34
  neutralization IC50: 0.015 µg/mL
[14]
  EC50: 0.1 µg/mL

## monoclonal antibody PG16
epitope-scaffold 2ZJR_B
  EC50 (read off the curve): 1 µg/mL
[1]
  EC50: > 50 µg/mL
[2]
  EC50: > 50 µg/mL
[3]
  EC50: 4.4 µg/mL
[4]
  EC50: 1.5 µg/mL
[5]
  EC50: 4 µg/mL
1FD6-ZM109 V1V2 scaffold
  EC50: 3.4 µg/mL
[6]
  EC50: 2.5 µg/mL
WITO.33 (HIV-1)
  neutralization IC80: < 0.023 µg/mL
ADA.DG (HIV-1)
  neutralization IC80: 0.458 µg/mL
CH038.12 (HIV-1)
  neutralization IC80: > 50 µg/mL
QH0692.42 (HIV-1)
  neutralization IC80: > 50 µg/mL
TRJO.58 (HIV-1)
  neutralization IC80: 13.9 µg/mL
T253-11 (HIV-1)
  neutralization IC80: > 50 µg/mL
TRO.11 (HIV-1)
  neutralization IC80: > 50 µg/mL
CNE10 (HIV-1)
  neutralization IC80: > 50 µg/mL
C3347.c11 (HIV-1)
  neutralization IC80: 0.031 µg/mL
RW020.2 (HIV-1)
  neutralization IC80: 3.51 µg/mL
0330.v4.c3 (HIV-1)
  neutralization IC80: 0.027 µg/mL
BB539.2B13 (HIV-1)
  neutralization IC80: 0.062 µg/mL
CNE5 (HIV-1)
  neutralization IC80: < 0.023 µg/mL
CNE59 (HIV-1)
  neutralization IC80: > 50 µg/mL
Monomeric gp120
  fold weaker affinity for monomeric gp120 than for the viral spike: > 100 fold
[7]
  neutralization IC50: > 50 µg/mL
[8]
  neutralization IC50: > 50 µg/mL
SF162.LS
  neutralization IC50: > 50 µg/mL
CNE14
  neutralization IC50: > 50 µg/mL
TRJO.58
  neutralization IC50: 0.393 µg/mL
[9]
  neutralization IC50: 1.32 µg/mL
YU2.DG
  neutralization IC50: 0.041 µg/mL
T257-31
  neutralization IC50: 0.003 µg/mL
T266-60
  neutralization IC50: > 50 µg/mL
[10]
  neutralization IC50: > 50 µg/mL
BR07.DG
  neutralization IC50: > 50 µg/mL
CAAN.A2
  neutralization IC50: 7.43 µg/mL
QH0692.42 (pseudovirus)
  neutralization IC50: > 50 µg/mL
CNE12
  neutralization IC50: > 50 µg/mL
BaL.26
  neutralization IC50: 0.136 µg/mL
[11]
  neutralization IC50: > 50 µg/mL
HO86.8
  neutralization IC50: 0.001 µg/mL
T278-50
  neutralization IC50: 1.13 µg/mL
Bal.01
  neutralization IC50: 8 µg/mL
T33-7
  neutralization IC50: < 0.023 µg/mL
JR-CSF
  neutralization IC50: 0.002 µg/mL
89.6.DG
  neutralization IC50: > 50 µg/mL
AC10.29
  neutralization IC50: < 0.023 µg/mL
MN.3
  neutralization IC50: > 50 µg/mL
[12]
  neutralization IC50: > 50 µg/mL
SC422.8
  neutralization IC50: 1.2 µg/mL
T253-11
  neutralization IC50: 4.44 µg/mL
SS1196.01
  neutralization IC50: 0.069 µg/mL
T280-5
  neutralization IC50: 0.233 µg/mL
HT593.1
  neutralization IC50: 0.153 µg/mL
ADA.DG
  neutralization IC50: 0.023 µg/mL
THRO.18
  neutralization IC50: 0.975 µg/mL
TRO.11 (pseudovirus)
  neutralization IC50: 4.86 µg/mL
T250-4
  neutralization IC50: < 0.0006 µg/mL
DJ263.8
  neutralization IC50: 0.048 µg/mL
WITO.33
  neutralization IC50: < 0.023 µg/mL
CNE10
  neutralization IC50: 9.17 µg/mL
HXB2.DG
  neutralization IC50: > 50 µg/mL
BX08_16
  neutralization IC50: 0.062 µg/mL
PVO.04
  neutralization IC50: 19.8 µg/mL
BL01.DG
  neutralization IC50: > 50 µg/mL
REJO.67
  neutralization IC50: 0.005 µg/mL
[13]
  neutralization IC50: 10.5 µg/mL
T255-34
  neutralization IC50: 0.005 µg/mL
[14]
  EC50: 15.1 µg/mL
